This note sets out measurements from patent US20260216242A1 (ALMAC DISCOVERY, published 2026).

The target of one assay is T1, human ALPL on CHO cells (human, UniProt P05186 18-501).
T1 construct: whole, on cells; also called CHO-ALPL
T1 sequence (looked up): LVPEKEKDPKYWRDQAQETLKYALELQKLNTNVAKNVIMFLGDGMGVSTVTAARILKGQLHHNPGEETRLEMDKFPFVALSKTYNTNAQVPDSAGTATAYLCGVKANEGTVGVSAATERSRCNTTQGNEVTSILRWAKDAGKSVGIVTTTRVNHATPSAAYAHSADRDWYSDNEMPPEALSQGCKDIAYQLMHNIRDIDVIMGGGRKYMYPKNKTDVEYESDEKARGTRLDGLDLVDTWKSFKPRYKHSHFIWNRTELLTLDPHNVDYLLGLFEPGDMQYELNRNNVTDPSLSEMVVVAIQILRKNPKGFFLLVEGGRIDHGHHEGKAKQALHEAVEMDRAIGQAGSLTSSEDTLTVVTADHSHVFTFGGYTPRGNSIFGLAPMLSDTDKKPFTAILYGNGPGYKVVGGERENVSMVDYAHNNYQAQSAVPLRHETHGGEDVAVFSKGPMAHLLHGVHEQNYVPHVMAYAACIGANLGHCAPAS
Put plainly: flow cytometry, CHO cells stably expressing human ALPL; PDC detected with FITC anti-human Ab. The protocol: (§1) Biparatopic VHH-hFc drug conjugates were assessed for human ALPP, ALPPL2, ALPI and ALPL cell-surface binding by flow cytometry. Binders were screened on CHO cells stably expressing human ALPP, ALPPL2, ALPI or ALPL.
(§2) Cell surface binding of test agents to hALPP isoforms was characterized in four CHO-ALPP isoform transfectant cell lines (CHO-ALPP, CHO-ALPPL2, CHO-ALPI and CHO-ALPL) and the resulting KDapp values determined. Adherent cells were detached from tissue culture flasks by incubating with 0.1% EDTA/PBS solution at 37° C. for […] or until cells detached easily. Cells were re-suspended in ice-cold PBS/2% FCS in 15 ml tubes and centrifuged at 1700 rpm for 5 mins at 4° C. Supernatant was removed and the cell pellet re-suspended in PBS/2% FCS. […] Cells were incubated with 100 μl of test agents at a range of concentrations, plus controls for 1 hr on ice. The sample plate was centrifuged at 1700 rpm for 5 mins at 4° C. The supernatant was removed, and a wash performed by re-suspending the cell pellets in 0.25 mL of ice-cold PBS/2% FCS using a multichannel pipette. Samples were again centrifuged at 1700 rpm for 5 min at 4° C. Supernatant was removed and two further washes performed as described. After the final wash and centrifugation step, excess liquid was removed by blotting the plate on tissue paper. Binding of VHH-hFc agents was determined by adding 100 μl of Fitc-anti-human Ab (ThermoFisher) and incubating for 30 mins on ice in the dark. Wash steps were performed as described previously. All cell pellets were finally re-suspended in 0.28 ml of ice-cold PBS/2% FCS and left on ice in the dark prior to analysis on a Merck-Millipore Guava EasyCyte HT or Thermo Fisher Attune N×T flow cytometer.
On the technique in general: A flow cytometer gives signals particle by particle.

Assay [1] deals with T2, human ALPP (alkaline phosphatase, placental type) expressed on the surface of CHO cells (human, UniProt P05187 23-506).
T2 construct: also called CHO-ALPP; hALPP
T2 sequence (P05187 23-506 limits assumed): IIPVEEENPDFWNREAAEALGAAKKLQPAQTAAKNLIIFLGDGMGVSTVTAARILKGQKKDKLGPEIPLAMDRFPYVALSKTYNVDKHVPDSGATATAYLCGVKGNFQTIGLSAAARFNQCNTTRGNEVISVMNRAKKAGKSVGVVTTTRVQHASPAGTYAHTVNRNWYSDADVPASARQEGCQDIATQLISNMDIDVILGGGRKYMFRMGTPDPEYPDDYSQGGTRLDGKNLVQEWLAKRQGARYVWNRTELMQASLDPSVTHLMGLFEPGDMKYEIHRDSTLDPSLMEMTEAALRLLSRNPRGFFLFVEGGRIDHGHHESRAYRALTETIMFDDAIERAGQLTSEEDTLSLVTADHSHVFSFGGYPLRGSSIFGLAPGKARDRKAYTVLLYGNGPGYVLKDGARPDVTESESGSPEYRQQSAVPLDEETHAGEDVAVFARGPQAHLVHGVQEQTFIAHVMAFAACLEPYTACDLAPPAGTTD
The assay can be described thus: flow cytometry on CHO-ALPP cells, apparent KD (KDapp). The protocol:
as §1, §2

Assay [2] concerns the target T3, human ALPPL2 (alkaline phosphatase, germ cell type) expressed on the surface of CHO cells (human, UniProt P10696 20-503).
T3 construct: whole, on cells; The cell-surface form has none; also called CHO-ALPPL2; hALPPL2
The assay can be described thus: flow cytometry on CHO-ALPPL2 cells, apparent KD (KDapp). The protocol:
as §1, §2

The target of assay [3] is T4, human ALPL (tissue non-specific alkaline phosphatase) expressed on the surface of CHO cells (human, UniProt P05186 18-501).
T4 sequence (looked up): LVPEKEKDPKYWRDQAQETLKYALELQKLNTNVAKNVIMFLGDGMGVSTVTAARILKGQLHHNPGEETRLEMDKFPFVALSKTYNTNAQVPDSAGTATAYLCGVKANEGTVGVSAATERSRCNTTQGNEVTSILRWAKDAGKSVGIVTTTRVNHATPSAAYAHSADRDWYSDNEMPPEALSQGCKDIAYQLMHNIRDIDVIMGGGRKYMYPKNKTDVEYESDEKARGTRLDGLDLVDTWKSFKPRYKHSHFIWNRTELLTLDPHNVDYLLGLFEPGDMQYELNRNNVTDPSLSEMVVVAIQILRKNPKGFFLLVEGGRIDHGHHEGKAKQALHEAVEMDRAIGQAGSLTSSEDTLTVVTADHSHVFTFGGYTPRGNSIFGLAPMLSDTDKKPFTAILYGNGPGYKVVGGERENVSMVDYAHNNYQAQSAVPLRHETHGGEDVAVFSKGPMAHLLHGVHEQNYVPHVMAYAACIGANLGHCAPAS
Put plainly: cell-based or functional assay.

Assay [4] deals with T5, human ALPI (intestinal alkaline phosphatase) expressed on the surface of CHO cells (human, UniProt P09923 20-503).
T5 sequence (looked up): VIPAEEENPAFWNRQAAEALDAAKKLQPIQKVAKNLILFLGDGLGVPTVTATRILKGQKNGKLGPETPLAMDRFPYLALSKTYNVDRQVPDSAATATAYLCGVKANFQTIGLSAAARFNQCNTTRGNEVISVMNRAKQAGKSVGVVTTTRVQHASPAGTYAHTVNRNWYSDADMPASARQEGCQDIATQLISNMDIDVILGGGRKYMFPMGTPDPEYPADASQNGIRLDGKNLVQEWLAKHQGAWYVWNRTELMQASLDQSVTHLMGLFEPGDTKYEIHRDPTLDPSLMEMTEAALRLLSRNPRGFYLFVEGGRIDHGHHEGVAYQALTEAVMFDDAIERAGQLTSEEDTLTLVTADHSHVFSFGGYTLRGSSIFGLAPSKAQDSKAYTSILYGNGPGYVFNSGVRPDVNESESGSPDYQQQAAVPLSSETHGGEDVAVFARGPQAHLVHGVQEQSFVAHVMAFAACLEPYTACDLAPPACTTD
Put plainly: cell-based or functional assay.

Assay [5] has as its target T3, human ALPPL2 (alkaline phosphatase, …). Put plainly: cell-based or functional assay.
Assay [6] concerns the target T5, human ALPI (intestinal alkaline …). The assay can be described thus: flow cytometry on CHO-ALPI cells.
The target in assay [7] is T4, human ALPL (tissue non-specific …). The assay can be described thus: flow cytometry, CHO-ALPL cells.

Some results are limits rather than exact numbers.

T3 sequence (P10696 20-503): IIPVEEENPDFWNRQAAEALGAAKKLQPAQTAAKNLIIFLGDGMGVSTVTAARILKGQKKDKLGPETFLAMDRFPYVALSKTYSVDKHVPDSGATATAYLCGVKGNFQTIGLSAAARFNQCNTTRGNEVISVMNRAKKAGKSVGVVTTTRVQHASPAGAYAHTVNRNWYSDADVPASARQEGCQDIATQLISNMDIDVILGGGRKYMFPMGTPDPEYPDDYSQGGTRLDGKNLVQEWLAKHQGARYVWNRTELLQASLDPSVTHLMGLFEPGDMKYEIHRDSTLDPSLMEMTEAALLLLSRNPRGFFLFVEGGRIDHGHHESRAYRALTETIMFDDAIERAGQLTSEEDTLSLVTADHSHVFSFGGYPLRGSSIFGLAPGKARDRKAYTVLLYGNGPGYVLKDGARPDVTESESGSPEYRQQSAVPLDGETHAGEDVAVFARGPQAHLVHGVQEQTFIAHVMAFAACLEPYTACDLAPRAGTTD

B1: A06-E06-hFc-vcPAB-MMAE [G4S]1 (Fc fusion, DAR 4)
chain 1: QVHLVESGGGLVQAGGSLRLSCAASGRTFLSMGWFRQAPGKEREFVAAISWTGGSTGYADSVKGRFTISRESDKETMYLQMNSLKPEDTAVYYCAARGDVYYGGDDATRYKYWGQGTQVTVSSGGGGSEPKSSDKTHTCPPCPAPELLGGPCVFLFPPKPKDTLMISRTPEVTCVVVDVSHEDPEVKFNWYVDGVEVHNAKTKPREEQYNSTYRVVSVLTVLHQDWLNGKEYKCKVSNKALPAPIEKTISKAKGQPREPQVYTLPPSRDELTKNQVSLYCLVKGFYPSDIAVEWESNGQPENNYKTTPPVLDSDGSFFLYSKLTVDKSRWQQGNVFSCSVMHEALHNHYTQKSLCLSPGK
chain 2: QVHLVESGGGLVQAGGSLRLSCAASRRSFSEYAMGWFRQAPGKEREFVAAIGWSGVIEYADSVKGRFTISRDNAKDTVYLQMNSLKPEDTAVYYCAAGLGIRVVSQTPAYWGQGTQVTVSSGGGGSEPKSSDKTHTCPPCPAPELLGGPCVFLFPPKPKDTLMISRTPEVTCVVVDVSHEDPEVKFNWYVDGVEVHNAKTKPREEQYNSTYRVVSVLTVLHQDWLNGKEYKCKVSNKALPAPIEKTISKAKGQPREPQVYTLPPSRDELTKNQVSLTCLVKGFYPSDIAVEWESNGQPENNYKTTPPVLDSDGSFFLTSKLTVDKSRWQQGNVFSCSVMHEALHNHYTQKSLCLSPGK
modifications: MC-vc-PAB-MMAE on Cys 239 and Cys 442 (EU numbering)
notes: Biparatopic drug conjugate, DAR 4; also called #710
As for B1, the binding result with human ALPL on CHO cells is listed as “no binding (tested: 350 nM)”.

B2: A06-E10-hFc-vcPAB-MMAE [G4S]1 (Fc fusion, DAR 4)
chain 1: QVHLVESGGGLVQAGGSLRLSCAASGRTFLSMGWFRQAPGKEREFVAAISWTGGSTGYADSVKGRFTISRESDKETMYLQMNSLKPEDTAVYYCAARGDVYYGGDDATRYKYWGQGTQVTVSSGGGGSEPKSSDKTHTCPPCPAPELLGGPCVFLFPPKPKDTLMISRTPEVTCVVVDVSHEDPEVKFNWYVDGVEVHNAKTKPREEQYNSTYRVVSVLTVLHQDWLNGKEYKCKVSNKALPAPIEKTISKAKGQPREPQVYTLPPSRDELTKNQVSLYCLVKGFYPSDIAVEWESNGQPENNYKTTPPVLDSDGSFFLYSKLTVDKSRWQQGNVFSCSVMHEALHNHYTQKSLCLSPGK
chain 2: QVQLVESGGGLVQAGGSLRLSCAVSGRALSDYNIGWFRQAPGKEREFVARKTWDGSSTRYDDSVKGRFTVSIEDAKNTAYLQMSSLKTEDTAVYYCAAGRYSRARGWEYDYWGQGTQVTVSSGGGGSEPKSSDKTHTCPPCPAPELLGGPCVFLFPPKPKDTLMISRTPEVTCVVVDVSHEDPEVKFNWYVDGVEVHNAKTKPREEQYNSTYRVVSVLTVLHQDWLNGKEYKCKVSNKALPAPIEKTISKAKGQPREPQVYTLPPSRDELTKNQVSLTCLVKGFYPSDIAVEWESNGQPENNYKTTPPVLDSDGSFFLTSKLTVDKSRWQQGNVFSCSVMHEALHNHYTQKSLCLSPGK
modifications: MC-vc-PAB-MMAE on Cys 239 and Cys 442 (EU numbering)
notes: Biparatopic drug conjugate, DAR 4; also called #711
For the molecule B2, the binding result with human ALPL on CHO cells was “no binding (tested: 350 nM)”.

B3: A06-F05-hFc-vcPAB-MMAE [G4S]1 (Fc fusion, DAR 4)
chain 1: QVHLVESGGGLVQAGGSLRLSCAASGRTFLSMGWFRQAPGKEREFVAAISWTGGSTGYADSVKGRFTISRESDKETMYLQMNSLKPEDTAVYYCAARGDVYYGGDDATRYKYWGQGTQVTVSSGGGGSEPKSSDKTHTCPPCPAPELLGGPCVFLFPPKPKDTLMISRTPEVTCVVVDVSHEDPEVKFNWYVDGVEVHNAKTKPREEQYNSTYRVVSVLTVLHQDWLNGKEYKCKVSNKALPAPIEKTISKAKGQPREPQVYTLPPSRDELTKNQVSLYCLVKGFYPSDIAVEWESNGQPENNYKTTPPVLDSDGSFFLYSKLTVDKSRWQQGNVFSCSVMHEALHNHYTQKSLCLSPGK
chain 2: QVQLVESGGGLVQAGGSLRLSCAASGRAFGDYNIGWFRQAPGKEREFVARRTWDGSSTRYDDSVKGRFTVSIDNAKNTAYLQMNSLKTEDTAVYYCAAGRYSRVRGWEYDYWGQGTQVTVSSGGGGSEPKSSDKTHTCPPCPAPELLGGPCVFLFPPKPKDTLMISRTPEVTCVVVDVSHEDPEVKFNWYVDGVEVHNAKTKPREEQYNSTYRVVSVLTVLHQDWLNGKEYKCKVSNKALPAPIEKTISKAKGQPREPQVYTLPPSRDELTKNQVSLTCLVKGFYPSDIAVEWESNGQPENNYKTTPPVLDSDGSFFLTSKLTVDKSRWQQGNVFSCSVMHEALHNHYTQKSLCLSPGK
modifications: MC-vc-PAB-MMAE on Cys 239 and Cys 442 (EU numbering)
notes: Biparatopic drug conjugate, DAR 4
With B3, in the assay with human ALPL on CHO cells, the binding result was “no binding (tested: 350 nM)”.

B4: A06 E06-hFc (S239/442C T366Y/Y407T), [G4S]3 linker, MC-vc-PAB-MMAE conjugate, #639 (Fc fusion, DAR 4)
chain 1: QVHLVESGGGLVQAGGSLRLSCAASGRTFLSMGWFRQAPGKEREFVAAISWTGGSTGYADSVKGRFTISRESDKETMYLQMNSLKPEDTAVYYCAARGDVYYGGDDATRYKYWGQGTQVTVSSGGGGSGGGGSGGGGSEPKSSDKTHTCPPCPAPELLGGPCVFLFPPKPKDTLMISRTPEVTCVVVDVSHEDPEVKFNWYVDGVEVHNAKTKPREEQYNSTYRVVSVLTVLHQDWLNGKEYKCKVSNKALPAPIEKTISKAKGQPREPQVYTLPPSRDELTKNQVSLYCLVKGFYPSDIAVEWESNGQPENNYKTTPPVLDSDGSFFLYSKLTVDKSRWQQGNVFSCSVMHEALHNHYTQKSLCLSPGK
chain 2: QVHLVESGGGLVQAGGSLRLSCAASRRSFSEYAMGWFRQAPGKEREFVAAIGWSGVIEYADSVKGRFTISRDNAKDTVYLQMNSLKPEDTAVYYCAAGLGIRVVSQTPAYWGQGTQVTVSSGGGGSGGGGSGGGGSEPKSSDKTHTCPPCPAPELLGGPCVFLFPPKPKDTLMISRTPEVTCVVVDVSHEDPEVKFNWYVDGVEVHNAKTKPREEQYNSTYRVVSVLTVLHQDWLNGKEYKCKVSNKALPAPIEKTISKAKGQPREPQVYTLPPSRDELTKNQVSLTCLVKGFYPSDIAVEWESNGQPENNYKTTPPVLDSDGSFFLTSKLTVDKSRWQQGNVFSCSVMHEALHNHYTQKSLCLSPGK
modifications: MC-vc-PAB-MMAE on Cys of S239C and S442C (EU numbering)
notes: Biparatopic knob-into-hole VHH-hFc heterodimer, DAR 4; The assignment of T366Y to the first named VHH and Y407T to the second follows the order of the name; No paragraph spells out this pair; also called A06-E06 hFc-vcPAB-MMAE; A06-E06hFc-vc-MMAE
As for B4, the values for the Kd in assay [1] and in assay [2] were 8.5 nM and 4.2 nM, respectively. Moreover, in assay [3], the IC50 (as a rule, the midpoint of a concentration-inhibition curve) at 96 h, cell-killing of CHO-ALPL cells was more than 1000 nM. In addition, the concentration for half-maximal inhibition (IC50) at 96 h, cell-killing of CHO-ALPI cells in assay [4] was more than 1000 nM. Also, it took 8.6 nM to reach half-maximal inhibition in assay [5] (IC50 at 96 h, cell-killing of CHO-ALPPL2 cells). Besides, the “MFI on CHO-ALPI cells at 350 nM as percent of MFI on CHO-ALPP cells (KDapp not-determinable)” value in assay [6] is not above 1%. Further, the binding result in assay [7] is given as “no binding (tested: 350 nM (highest concentration))”.
